Measurements from PMC6697640.

Molecular target: 3X N-terminal FLAG-tagged PTEN (phosphatase and tensin homolog), wild type (UniProt P60484)
Experiment: native gel or EMSA; co-IPs from total lysate of BT-549-PTEN cells followed by Western blot under non-denaturing conditions; dimers seen in the input lane and in the co-immunoprecipitate

3X N-terminal FLAG-tagged PTEN (phosphatase and tensin homolog), wild type, P60484 1-403 (enzyme; other documents disagree on this pair)
stoichiometry N: 2
